Test results: patent publication EP4755403A1 (Jiangsu Hengrui Pharmaceuticals Co., Ltd., dated 2025)

B1: H-AB-P1 (AB-PG1-XG1-006) (antibody, V domains shown)
VH: QVQLVESGGGVVQPGRSLRLSCAASGFAFSRYGMHWVRQAPGKGLEWVAVIWYDGSNKYYADSVKGRFTISRDNSKNTQYLQMNSLRAEDTAVYYCARGGDFLYYYYYGMDVWGQGTTVTVSS
VL: DIQMTQSPSSLSASVGDRVTITCRASQGISNYLAWYQQKTGKVPKFLIYEASTLQSGVPSRFSGGGSGTDFTLTISSLQPEDVATYYCQNYNSAPFTFGPGTKVDIK
B2: P19 (19L2H2) (antibody, human IgG1, kappa, V domains shown)
VH: EVKLVESGGGLVQPGGSLRLSCAASGFTFSDYYMAWVRQAPGKGLEWVANINYDGSSTYYLDSLKSRFTISRDNAKNSLYLQMNSLRAEDTAVYYCARGGDYWDAMDYWGQGTTVTVSS
VL: DIQMTQSPSSLSASVGDRVTITCRASQDISKYLNWYQQKPGKAPKLLIYYTSSLHSGVPSRFSGSGSGTDYTLTISSLQPEDFATYYCQQGNRLPRTFGGGTKVEIKR
notes: Humanized anti-PSMA antibody from mouse mAb19-1 (hu19-1 VH2 + hu19-1 VL2), human IgG1 / kappa constant regions; also called antibody P19
B3: ADC-2 (P19-9-A, n = 7.41) (antibody, human IgG1, kappa, V domains shown)
VH: EVKLVESGGGLVQPGGSLRLSCAASGFTFSDYYMAWVRQAPGKGLEWVANINYDGSSTYYLDSLKSRFTISRDNAKNSLYLQMNSLRAEDTAVYYCARGGDYWDAMDYWGQGTTVTVSS
VL: DIQMTQSPSSLSASVGDRVTITCRASQDISKYLNWYQQKPGKAPKLLIYYTSSLHSGVPSRFSGSGSGTDYTLTISSLQPEDFATYYCQQGNRLPRTFGGGTKVEIKR
modifications: drug-linker 9-A coupled via sulfhydryl groups on cysteine; mean n = 7.41 per antibody (positions not stated)
B4: ADC-1 (P19-9-A, n = 5.55) (antibody, human IgG1, kappa, V domains shown)
VH: EVKLVESGGGLVQPGGSLRLSCAASGFTFSDYYMAWVRQAPGKGLEWVANINYDGSSTYYLDSLKSRFTISRDNAKNSLYLQMNSLRAEDTAVYYCARGGDYWDAMDYWGQGTTVTVSS
VL: DIQMTQSPSSLSASVGDRVTITCRASQDISKYLNWYQQKPGKAPKLLIYYTSSLHSGVPSRFSGSGSGTDYTLTISSLQPEDFATYYCQQGNRLPRTFGGGTKVEIKR
modifications: drug-linker 9-A coupled via sulfhydryl groups on cysteine; mean n = 5.55 per antibody (positions not stated)

Columns and labels:
[1] = target: T1, human PSMA (prostate specific membrane antigen) on tumor cells (human, UniProt Q04609 1-750); experiment: cell-based or functional assay
T1 sequence (Q04609 whole entry): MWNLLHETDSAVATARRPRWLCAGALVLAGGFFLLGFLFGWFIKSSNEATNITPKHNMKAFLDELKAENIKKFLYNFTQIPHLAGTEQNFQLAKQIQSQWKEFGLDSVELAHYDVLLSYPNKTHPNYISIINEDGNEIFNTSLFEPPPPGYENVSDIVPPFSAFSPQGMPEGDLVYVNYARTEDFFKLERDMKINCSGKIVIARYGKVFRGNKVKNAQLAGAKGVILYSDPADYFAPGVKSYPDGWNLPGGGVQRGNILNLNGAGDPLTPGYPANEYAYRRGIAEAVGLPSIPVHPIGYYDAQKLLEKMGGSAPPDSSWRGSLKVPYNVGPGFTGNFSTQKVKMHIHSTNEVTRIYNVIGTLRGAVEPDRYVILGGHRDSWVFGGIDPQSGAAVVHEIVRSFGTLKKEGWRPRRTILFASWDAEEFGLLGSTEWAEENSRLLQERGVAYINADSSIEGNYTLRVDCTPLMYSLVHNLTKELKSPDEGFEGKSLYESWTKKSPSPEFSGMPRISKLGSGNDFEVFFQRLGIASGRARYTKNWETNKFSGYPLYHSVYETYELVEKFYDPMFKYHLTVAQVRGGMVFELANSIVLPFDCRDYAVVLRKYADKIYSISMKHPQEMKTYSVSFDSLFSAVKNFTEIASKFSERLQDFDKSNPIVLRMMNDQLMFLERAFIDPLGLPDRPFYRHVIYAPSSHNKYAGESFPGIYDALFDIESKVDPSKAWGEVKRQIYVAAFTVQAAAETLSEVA

[2] = target: T1, human PSMA (prostate specific membrane …); experiment: flow cytometry on 22RV1 cells, FITC anti-human IgG secondary
[3] = target: T1, human PSMA (prostate specific membrane …); experiment: flow cytometry on LNCaP cells, FITC anti-human IgG secondary
[4] = target: T1, human PSMA (prostate specific membrane …); experiment: flow cytometry on 22RV1 cells, FITC anti-human IgG secondary; remark: listed apart in the source
[5] = target: T1, human PSMA (prostate specific membrane …); experiment: flow cytometry on LNCaP cells, FITC anti-human IgG secondary; remark: listed apart in the source
[6] = target: T2, mouse PSMA-His (ACRO, PSA-M5245) (mouse, UniProt O35409 45-752); experiment: SPR (Biacore T200), antibody captured on Protein A chip, antigen flowed over
T2 construct: Commercial protein; not shown: His tag
T2 sequence (O35409 45-752): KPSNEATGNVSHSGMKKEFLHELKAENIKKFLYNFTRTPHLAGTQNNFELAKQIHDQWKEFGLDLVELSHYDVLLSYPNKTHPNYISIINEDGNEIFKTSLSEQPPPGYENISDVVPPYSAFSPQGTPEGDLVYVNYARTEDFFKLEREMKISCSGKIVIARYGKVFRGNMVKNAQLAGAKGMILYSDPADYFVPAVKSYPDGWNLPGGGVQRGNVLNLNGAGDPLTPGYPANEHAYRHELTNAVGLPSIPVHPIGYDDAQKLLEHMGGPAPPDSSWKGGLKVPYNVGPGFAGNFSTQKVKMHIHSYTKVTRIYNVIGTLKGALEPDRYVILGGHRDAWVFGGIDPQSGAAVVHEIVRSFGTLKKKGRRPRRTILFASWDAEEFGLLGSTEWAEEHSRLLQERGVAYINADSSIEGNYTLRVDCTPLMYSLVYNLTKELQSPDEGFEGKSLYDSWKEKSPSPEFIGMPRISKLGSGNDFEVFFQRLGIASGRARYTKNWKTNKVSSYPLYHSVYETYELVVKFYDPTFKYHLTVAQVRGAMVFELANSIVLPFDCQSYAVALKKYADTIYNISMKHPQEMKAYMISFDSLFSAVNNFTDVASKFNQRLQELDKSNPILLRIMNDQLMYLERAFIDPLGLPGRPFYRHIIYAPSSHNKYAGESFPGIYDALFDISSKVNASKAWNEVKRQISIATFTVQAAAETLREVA

[7] = target: T3, human PSMA-His (ACRO, PSA-H52H3) (human, UniProt Q04609 44-750); experiment: SPR (Biacore T200), antibody captured on Protein A chip, antigen flowed over, 1:1 model
T3 construct: Commercial protein; not shown: His tag
T3 sequence (Q04609 44-750 limits assumed): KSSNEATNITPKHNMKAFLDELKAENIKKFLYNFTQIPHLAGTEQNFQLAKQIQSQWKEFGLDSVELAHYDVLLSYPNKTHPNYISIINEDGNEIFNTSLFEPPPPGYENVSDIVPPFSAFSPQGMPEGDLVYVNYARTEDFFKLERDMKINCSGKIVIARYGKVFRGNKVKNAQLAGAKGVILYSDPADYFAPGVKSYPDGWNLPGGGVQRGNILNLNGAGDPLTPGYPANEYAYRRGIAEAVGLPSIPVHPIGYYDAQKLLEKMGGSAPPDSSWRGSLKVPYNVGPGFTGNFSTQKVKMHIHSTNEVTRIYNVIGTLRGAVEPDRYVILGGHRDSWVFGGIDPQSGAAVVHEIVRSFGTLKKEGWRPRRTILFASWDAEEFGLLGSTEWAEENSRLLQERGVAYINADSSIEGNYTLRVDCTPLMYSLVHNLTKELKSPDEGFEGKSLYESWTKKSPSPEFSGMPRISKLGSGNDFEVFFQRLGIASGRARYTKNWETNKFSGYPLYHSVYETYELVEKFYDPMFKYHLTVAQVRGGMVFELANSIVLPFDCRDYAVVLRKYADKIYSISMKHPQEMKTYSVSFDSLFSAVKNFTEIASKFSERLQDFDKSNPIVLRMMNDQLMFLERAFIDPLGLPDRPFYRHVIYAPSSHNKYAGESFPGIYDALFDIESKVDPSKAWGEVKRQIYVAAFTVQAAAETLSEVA

[8] = target: T4, monkey PSMA-His (ACRO, PSA-C5247) (monkey (cynomolgus), UniProt A0A2K5VNZ0 44-750); experiment: as above
T4 construct: Commercial protein; also called cynomolgus monkey PSMA; not shown: His tag

[9] = target: T1, human PSMA (prostate specific membrane …); experiment: cell-based or functional assay; remark: listed apart in the source

Row | Binder | DT3C endocytosis assay on LNCaP cells, IC50 [1] [nM] | EC50 [2] [nM] | EC50 [3] [nM] | EC50 [4] [nM] | EC50 [5] [nM] | binding result [6] | Kd [7] [nM] | koff [7] [s⁻¹] | kon [7] [M⁻¹ s⁻¹] | Kd [8] [nM] | killing of 22RV1 (+) cells, CellTiter-Glo, IC50 [9] [nM] | killing of LNCaP (+++) cells, CellTiter-Glo, IC50 [9] [nM]
1 | B1 | 2.71 |  |  |  |  |  |  |  |  |  |  | 
2 | B2 | 0.25 | 0.637 | 2.09 | 0.0719 | 0.305 | no binding | 1.3 | 7.92e-05 | 61100 | 5.08 |  | 
3 | B3 |  |  |  | 0.0812 | 0.307 |  |  |  |  |  | 6.92 | 2.83
4 | B4 |  |  |  | 0.114 | 0.442 |  |  |  |  |  | 29.5 | 8.52
